Patent publication US8529881B2, “Peptides for active anti-cytokine immunization” (Vaxconsulting, priority 2002, dated 2013)
Several values for one entry are separate records, joined by “and”; a condition that tells them apart may be missing. Identical values can stand only once. Positions of bridges follow the written chain, without caps; N, C: chain ends. No end group written: not given here.

Key:
[1] = molecular target: T1, human IL18 (native cytokine) (Homo sapiens, UniProt Q14116); assay: ELISA of serum from immunized mice with native IL18; assay type: in vivo; details: serum day 60
T1 sequence (Q14116 37-193): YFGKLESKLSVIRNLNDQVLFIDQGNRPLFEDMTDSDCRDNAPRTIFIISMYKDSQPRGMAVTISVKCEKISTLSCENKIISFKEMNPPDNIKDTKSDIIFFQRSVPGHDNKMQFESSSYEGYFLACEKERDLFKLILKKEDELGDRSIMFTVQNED

[2] = molecular target: human IL12p40 (native cytokine) (Homo sapiens, UniProt P29460); details: in vivo
[3] = molecular target: human TNFα (native cytokine) (Homo sapiens, UniProt P01375); assay: ELISA of serum from immunized mice with native TNFα; assay type: in vivo; details: serum day 60
native TNFα cytokine = native TNFα cytokine (Homo sapiens, UniProt P01375); assay: Neutralization of native TNFα by mouse serum, lysis of L929 cells; assay type: cell-based; details: for percentage inhibition of the lysis (neutralization of the TNFα): 50 units TNFα, 24 hours
Description: The existence of antibodies neutralizing the native cytokine was evaluated as follows: 50 units of native TNFα cytokine are preincubated with serum from mice (immunized or control) diluted 1/200th over 2 hours at 37° C. The whole is then added to L929 cells, with 25,000 cells per microwell. The lysis of the cells is evaluated after 24 hours by staining with naphthol blue black (Sigma).

[4] = molecular target: T2, human IL5 (native cytokine) (Homo sapiens, UniProt P05113); assay: ELISA of serum from immunized mice with native IL5; assay type: in vivo; details: serum day 60
T2 sequence (P05113 20-134): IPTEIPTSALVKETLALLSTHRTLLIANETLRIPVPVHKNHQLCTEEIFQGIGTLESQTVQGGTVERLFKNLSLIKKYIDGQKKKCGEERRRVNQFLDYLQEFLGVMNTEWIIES

[5] = tested on: human vEGF (native cytokine); assay: ELISA of serum from immunized mice with native vEGF; assay type: in vivo; details: serum day 60
[6] = molecular target: T3, human TGFβ2 (native cytokine) (Homo sapiens, UniProt P61812); assay: ELISA of serum from immunized mice with native TGFβ2; assay type: in vivo; details: serum day 60
T3 sequence (P61812 303-414 limits assumed): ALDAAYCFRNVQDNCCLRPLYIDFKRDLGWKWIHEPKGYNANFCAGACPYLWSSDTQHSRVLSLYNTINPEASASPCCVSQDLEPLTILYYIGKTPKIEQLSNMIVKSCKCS

[7] = molecular target: T4, human IL4 (native cytokine) (Homo sapiens, UniProt P05112); assay: ELISA of serum from immunized mice with native IL4; assay type: in vivo; details: serum day 60
T4 sequence (P05112 25-153): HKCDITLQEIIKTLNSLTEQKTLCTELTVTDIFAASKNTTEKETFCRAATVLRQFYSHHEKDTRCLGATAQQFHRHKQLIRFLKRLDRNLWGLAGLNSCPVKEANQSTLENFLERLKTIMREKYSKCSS

[8] = molecular target: T5, human IP10 (native cytokine) (Homo sapiens, UniProt P02778); assay: ELISA of serum from immunized mice with native IP10; assay type: in vivo; details: serum day 60
T5 sequence (P02778 22-98): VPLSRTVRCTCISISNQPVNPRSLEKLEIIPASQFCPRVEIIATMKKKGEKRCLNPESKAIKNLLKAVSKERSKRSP

[9] = molecular target: human IL10 (native cytokine) (Homo sapiens, UniProt P22301); assay: ELISA of serum from immunized mice with native IL10; assay type: in vivo; details: serum day 60
IFNγ (native cytokine) = assay type: cell-based, human
[10] = molecular target: human IFNγ (native cytokine) (Homo sapiens, UniProt P01579); details: in vivo
Sequence of human IFNγ (native cytokine) (P01579 24-161): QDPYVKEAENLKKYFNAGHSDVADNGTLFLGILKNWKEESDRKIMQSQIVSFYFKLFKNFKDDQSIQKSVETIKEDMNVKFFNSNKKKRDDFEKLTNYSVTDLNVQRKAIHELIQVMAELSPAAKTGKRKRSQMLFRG

Sequence of native TNFα cytokine (P01375 77-233 limits assumed): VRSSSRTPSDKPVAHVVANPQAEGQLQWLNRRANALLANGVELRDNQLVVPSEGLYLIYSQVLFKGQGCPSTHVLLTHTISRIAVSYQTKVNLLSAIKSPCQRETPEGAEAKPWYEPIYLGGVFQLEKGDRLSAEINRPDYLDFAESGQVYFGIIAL
Sequence of human TNFα (native cytokine) (P01375 77-233 limits assumed): as above
Sequence of human IL12p40 (native cytokine) (P29460 23-328): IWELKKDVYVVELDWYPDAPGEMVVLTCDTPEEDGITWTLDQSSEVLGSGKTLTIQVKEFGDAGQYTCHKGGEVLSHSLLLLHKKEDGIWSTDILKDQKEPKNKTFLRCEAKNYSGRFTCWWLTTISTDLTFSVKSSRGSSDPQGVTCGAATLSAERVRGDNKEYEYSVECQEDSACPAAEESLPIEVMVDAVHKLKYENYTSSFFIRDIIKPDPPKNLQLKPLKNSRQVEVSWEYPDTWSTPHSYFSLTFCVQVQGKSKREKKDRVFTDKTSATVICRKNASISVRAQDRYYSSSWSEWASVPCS
Sequence of human IL10 (native cytokine) (P22301 19-178): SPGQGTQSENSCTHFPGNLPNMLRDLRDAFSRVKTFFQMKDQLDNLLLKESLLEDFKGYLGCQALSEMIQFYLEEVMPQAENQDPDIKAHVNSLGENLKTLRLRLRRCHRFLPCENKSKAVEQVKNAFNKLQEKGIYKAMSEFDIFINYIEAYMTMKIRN

Question: With “KYFGKLESKLSVIRNLNDQVLFID (also: KLH conjugate via glutaraldehyde; listed as Homo sapiens) [Example 8, peptide originating from human IL18, K added, coupled with KLH]” as the sequence, how does the “average absorbance, ELISA native IL18” value ([1]; Average of 5 mice) read?
Answer: Its value is 1.35.

Question: And the “average absorbance, ELISA native IL18” value ([1]; Mouse 1)?
Answer: Its value is 1.85.

Question: And the “average absorbance, ELISA native IL18” value ([1]; Mouse 2)?
Answer: Its value is 1.13.

Question: And the “average absorbance, ELISA native IL18” value ([1]; Mouse 3)?
Answer: The value was 0.99.

Question: What about the “average absorbance, ELISA native IL18” value ([1]; Mouse 4) of the same sequence?
Answer: The value was 1.24.

Question: And the “average absorbance, ELISA native IL18” value ([1]; Mouse 5)?
Answer: The value was 1.54.

Question: Which “average absorbance, ELISA native IL12p40” value [2] does the source give for KKEDGIWSTDILKDQKEPKNKTFLRCE [Example 7] here?
Answer: Its value is 0.95 and 1.06 and 1.58 and 1.14 and 0.87 and 1.12.

Question: Which “average absorbance, ELISA native TNFα” value ([3]; Average of 5 mice) does the source give for “KYQAEGQLQWLNRRANALLANGVELRDNQL (also: KLH conjugate via diazobenzidine; listed as Homo sapiens) [Example 3, synthetic peptide originating from human TNFα, K and Y added, coupled to KLH]” here?
Answer: The value was 1.31.

Question: And the “average absorbance, ELISA native TNFα” value ([3]; Mouse 1)?
Answer: Its value is 1.64.

Question: And the “average absorbance, ELISA native TNFα” value ([3]; Mouse 2)?
Answer: The value was 1.14.

Question: And the “average absorbance, ELISA native TNFα” value ([3]; Mouse 3)?
Answer: Its value is 1.96.

Question: And the “average absorbance, ELISA native TNFα” value ([3]; Mouse 4)?
Answer: Its value is 1.02.

Question: What about the “average absorbance, ELISA native TNFα” value ([3]; Mouse 5) of the same sequence?
Answer: Its value is 0.78.

Question: And the “percentage inhibition of the lysis (neutralization of the TNFα)” value (“percentage inhibition of the lysis” below) (native TNFα cytokine; Average of 5 mice, serum diluted 1/200th)?
Answer: The value was 61%.

Question: And the “percentage inhibition of the lysis” value (native TNFα cytokine; Mouse 1, serum diluted 1/200th)?
Answer: The value was 88%.

Question: And the “percentage inhibition of the lysis” value (native TNFα cytokine; Mouse 2, serum diluted 1/200th)?
Answer: The value was 12%.

Question: What about the “percentage inhibition of the lysis” value (native TNFα cytokine; Mouse 3, serum diluted 1/200th) of the same sequence?
Answer: Its value is 93%.

Question: What about the “percentage inhibition of the lysis” value (native TNFα cytokine; Mouse 4, serum diluted 1/200th) of the same sequence?
Answer: Its value is 36%.

Question: What about the “percentage inhibition of the lysis” value (native TNFα cytokine; Mouse 5, serum diluted 1/200th) of the same sequence?
Answer: The value was 79%.

Question: And the “neutralization of the TNFα, result in words” value (native TNFα cytokine; serum of immunized mice vs controls)?
Answer: The value was “responses are observed for the immunized mice”.

Question: “KLQEFLGVMNTEWI (also: KLH conjugate via glutaraldehyde; listed as Homo sapiens) [Example 10, peptide corresponding to human IL5, K added, coupled with KLH]” was tested. Which “average absorbance, ELISA native IL5” value ([4]; Average of 5 mice) did it give?
Answer: Its value is 1.26.

Question: What about the “average absorbance, ELISA native IL5” value ([4]; Mouse 1) of the same sequence?
Answer: Its value is 1.25.

Question: What about the “average absorbance, ELISA native IL5” value ([4]; Mouse 2) of the same sequence?
Answer: The value was 1.21.

Question: And the “average absorbance, ELISA native IL5” value ([4]; Mouse 3)?
Answer: The value was 1.87.

Question: What about the “average absorbance, ELISA native IL5” value ([4]; Mouse 4) of the same sequence?
Answer: Its value is 1.10.

Question: And the “average absorbance, ELISA native IL5” value ([4]; Mouse 5)?
Answer: The value was 0.88.

Question: Which results are given for “KPHQGQHIGEMS (also: KLH conjugate via glutaraldehyde; listed as Homo sapiens) [Example 2, synthetic peptide originating from human vEGF coupled to KLH]”?
Answer: average absorbance, ELISA native vEGF ([5]; Average of 5 mice): 1.19; average absorbance, ELISA native vEGF ([5]; Mouse 1): 1.50; average absorbance, ELISA native vEGF ([5]; Mouse 2): 1.00; average absorbance, ELISA native vEGF ([5]; Mouse 3): 0.86; average absorbance, ELISA native vEGF ([5]; Mouse 4): 0.98; average absorbance, ELISA native vEGF ([5]; Mouse 5): 1.63

Question: Which “average absorbance, ELISA native TGFβ2” value ([6]; Average of 5 mice) does the source give for “DTILYYIGKTPKIE (also: KLH conjugate via carbodiimide; listed as Homo sapiens) [Example 11, peptide corresponding to human TGFβ2, D added, coupled with KLH]” here?
Answer: Its value is 1.07.

Question: What about the “average absorbance, ELISA native TGFβ2” value ([6]; Mouse 1) of the same sequence?
Answer: Its value is 0.95.

Question: What about the “average absorbance, ELISA native TGFβ2” value ([6]; Mouse 2) of the same sequence?
Answer: The value was 1.15.

Question: What about the “average absorbance, ELISA native TGFβ2” value ([6]; Mouse 3) of the same sequence?
Answer: Its value is 0.99.

Question: What about the “average absorbance, ELISA native TGFβ2” value ([6]; Mouse 4) of the same sequence?
Answer: Its value is 1.17.

Question: And the “average absorbance, ELISA native TGFβ2” value ([6]; Mouse 5)?
Answer: The value was 1.08.

Question: Which results are given for “KQLIRFLKRLDRNLWGLAG (also: KLH conjugate via glutaraldehyde; listed as Homo sapiens) [Example 6, peptide corresponding to human IL4 coupled with KLH]”?
Answer: average absorbance, ELISA native IL4 ([7]; Average of 5 mice): 1.07; average absorbance, ELISA native IL4 ([7]; Mouse 1): 1.06; average absorbance, ELISA native IL4 ([7]; Mouse 2): 1.25; average absorbance, ELISA native IL4 ([7]; Mouse 3): 0.95; average absorbance, ELISA native IL4 ([7]; Mouse 4): 0.87; average absorbance, ELISA native IL4 ([7]; Mouse 5): 1.24

Question: Which results are given for KKKGEKRCLNPESKA [Example 9]?
Answer: average absorbance, ELISA native IP10 ([8]; Average of 5 mice): 1.07; average absorbance, ELISA native IP10 ([8]; Mouse 1): 1.16; average absorbance, ELISA native IP10 ([8]; Mouse 2): 0.98; average absorbance, ELISA native IP10 ([8]; Mouse 3): 1.24; average absorbance, ELISA native IP10 ([8]; Mouse 4): 1.09; average absorbance, ELISA native IP10 ([8]; Mouse 5): 0.88

Question: “DECNMLRDLRDAFSRVKTFFQMKDQLDNC (disulfide 3-29 (inferred); also: KLH conjugate; listed as Homo sapiens) [Example 5, cyclic peptide originating from human IL10 coupled with KLH]” was tested. Which “average absorbance, ELISA native IL10” value ([9]; Average of 5 mice) did it give?
Answer: Its value is 1.44.

Question: What about the “average absorbance, ELISA native IL10” value ([9]; Mouse 1) of the same sequence?
Answer: Its value is 1.94.

Question: What about the “average absorbance, ELISA native IL10” value ([9]; Mouse 2) of the same sequence?
Answer: Its value is 0.96.

Question: And the “average absorbance, ELISA native IL10” value ([9]; Mouse 3)?
Answer: The value was 1.85.

Question: And the “average absorbance, ELISA native IL10” value ([9]; Mouse 4)?
Answer: Its value is 0.97.

Question: And the “average absorbance, ELISA native IL10” value ([9]; Mouse 5)?
Answer: The value was 1.5.

Question: For KKYFNAGHSDVADNGTLFLGILKN [Example 4], which “neutralization of the IFNγ, result in words” value (IFNγ (native cytokine)) is on record?
Answer: Its value is “inhibitions are observed for the immunized mice”.

Question: What about the “average absorbance, ELISA native IFNγ” value [10] of the same sequence?
Answer: The value was 1.56 and 1.05 and 0.98 and 1.80 and 1.64 and 1.41.
